# Columns and labels:
# Assay in all cases: cell-based or functional assay
# [1] = target: T1, full length cynomolgus BTLA expressed in a Jurkat T cell line (cynomolgus monkey, UniProt Q7Z6A9 31-289 (human entry))
# T1 chain: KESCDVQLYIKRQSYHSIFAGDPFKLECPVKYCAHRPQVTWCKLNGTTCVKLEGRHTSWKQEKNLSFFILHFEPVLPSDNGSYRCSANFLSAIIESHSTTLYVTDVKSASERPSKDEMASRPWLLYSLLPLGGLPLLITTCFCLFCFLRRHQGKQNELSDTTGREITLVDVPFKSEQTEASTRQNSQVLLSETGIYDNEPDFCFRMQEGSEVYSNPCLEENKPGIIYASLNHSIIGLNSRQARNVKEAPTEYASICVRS
# [2] = target: T2, chimeric BTLA of humanised-BTLA mice (human extracellular region, murine transmembrane and signaling … (human; mouse, UniProt Q7TSA3 184-306, limits assumed)
# [3] = target: T2, chimeric BTLA of humanised-BTLA mice …; remark: listed apart in the source
# T2 sequence (Q7TSA3 other isoform, or with tags, fused parts or gaps mutant limits assumed): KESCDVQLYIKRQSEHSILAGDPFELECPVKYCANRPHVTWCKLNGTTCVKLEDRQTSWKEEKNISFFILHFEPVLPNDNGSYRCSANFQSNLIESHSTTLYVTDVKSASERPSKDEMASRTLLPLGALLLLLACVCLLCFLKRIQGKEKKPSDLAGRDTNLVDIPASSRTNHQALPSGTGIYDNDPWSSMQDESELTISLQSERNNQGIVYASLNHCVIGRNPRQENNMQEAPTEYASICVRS
binder,measurement,setting,value
"11.5.1 (antibody, IgG1, V domains shown) VH: EVQLQESGPSLVKPSQTLSLTCSVTGDSITSAYWNWIRKFPGNKLEYMGYISYSGSTYFNPSLKSRISITRNTSKNQYYLQLNSVTTEDTATYYCARSHYYGYYFDYWGHGTTLTVSS VL: DIVLTQSPASLAVSLGQRATISCRASETIDSYGDSLMHWYQQKAGQPPKLLIYRASNLESGIPARFSGSGSRTDFTLTINPVEADDVATYYCQQTDEDPYTFGGGTKLEIK","IC50, inhibition of NFkB-GFP reporter in BTLA transfected Jurkat cells",[1],140 pM
same,"IC50, inhibition of CD4 T cell proliferation in a mixed lymphocyte reaction",[2],16 pM
same,"AntiCD3/CD28 (CD4 T cell proliferation) repeat 1, % inhibition",[3],21%
same,"AntiCD3/CD28 (CD4 T cell proliferation) repeat 2, % inhibition",[3],28%
same,"AntiCD3/CD28 (CD69+ CD4 T cells) repeat 1, % inhibition",[3],50%
same,"AntiCD3/CD28 (CD69+ CD4 T cells) repeat 2, % inhibition",[3],47%
same,"MLR (CD4 T cell proliferation) repeat 1, % inhibition",[3],23%
same,"MLR (CD4 T cell proliferation) repeat 2, % inhibition",[3],18%
"2.8.6 (antibody, IgG1, V domains shown) VH: QVQLKESGPGLVAPSQSLSITCTVSGFSLTTYGVHWVRQSPGKGLEWLGVMWPGGRTSYNPAPMSRLSISKDNSKSQVFLKMNSLQTDDTAMYYCVRGDYEYDYYAMDYWGQGTSVTVSS VL: QIVLSQSPAILSASPGEKVTMTCRASSSVSYMHWYQQKPGSSPKPWIYATSNLASGVPARFSGSGSGTSYSLTISRMEAEDAATYYCHQWSSNPYTFGGGTKLEIK","IC50, inhibition of NFkB-GFP reporter in BTLA transfected Jurkat cells",[1],220 pM
same,"IC50, inhibition of CD4 T cell proliferation in a mixed lymphocyte reaction",[2],29 pM
same,"AntiCD3/CD28 (CD4 T cell proliferation) repeat 1, % inhibition",[3],23%
same,"AntiCD3/CD28 (CD4 T cell proliferation) repeat 2, % inhibition",[3],35%
same,"AntiCD3/CD28 (CD69+ CD4 T cells) repeat 1, % inhibition",[3],58%
same,"AntiCD3/CD28 (CD69+ CD4 T cells) repeat 2, % inhibition",[3],67%
same,"MLR (CD4 T cell proliferation) repeat 1, % inhibition",[3],30%
same,"MLR (CD4 T cell proliferation) repeat 2, % inhibition",[3],36%
